This passage reports EC50, binding result and Kd results from paper PMC13315262, “In silico discovery of nanobody binders to a G-protein coupled receptor using AlphaFold-Multimer” (Nature Communications, 2026).

By EC50 is commonly meant the concentration that produces a half-maximal response. A lower EC50 goes with an effect from little substance. As usually defined, the Kd is a measure of binding affinity in units of concentration.

B5: MAS-related GPR family member X2 (MRGPRX2), endogenous on ROSA mast cells (receptor, human (endogenous in ROSA), UniProt Q96LB1 1-330, looked up)
chain: MDPTTPAWGTESTTVNGNDQALLLLCGKETLIPVFLILFIALVGLVGNGFVLWLLGFRMRRNAFSVYVLSLAGADFLFLCFQIINCLVYLSNFFCSISINFPSFFTTVMTCAYLAGLSMLSTVSTERCLSVLWPIWYRCRRPRHLSAVVCVLLWALSLLLSILEGKFCGFLFSDGDSGWCQTFDFITAAWLIFLFMVLCGSSLALLVRILCGSRGLPLTRLYLTILLTVLVFLLCGLPFGIQWFLILWIWKDSDVLFCHIHPVSVVLSSLNSSANPIIYFFVGSFRKQWRLQQPILKLALQRALQDIAEVDHSEGCFRQGTPEMSRSSLV
notes: MAS-related GPR family member X2 (MRGPRX2), a GPCR, endogenously expressed at high levels on the ROSA mast cell line; source: endogenous, on ROSA mast cells (immortalized mast cell line)
B6: human N-terminal FLAG-tagged MRGPRX2, on transfected HEK293T cells (receptor, UniProt Q96LB1 1-330, looked up)
chain: MDPTTPAWGTESTTVNGNDQALLLLCGKETLIPVFLILFIALVGLVGNGFVLWLLGFRMRRNAFSVYVLSLAGADFLFLCFQIINCLVYLSNFFCSISINFPSFFTTVMTCAYLAGLSMLSTVSTERCLSVLWPIWYRCRRPRHLSAVVCVLLWALSLLLSILEGKFCGFLFSDGDSGWCQTFDFITAAWLIFLFMVLCGSSLALLVRILCGSRGLPLTRLYLTILLTVLVFLLCGLPFGIQWFLILWIWKDSDVLFCHIHPVSVVLSSLNSSANPIIYFFVGSFRKQWRLQQPILKLALQRALQDIAEVDHSEGCFRQGTPEMSRSSLV
notes: MRGPRX2, human, N-terminal FLAG-tagged, in a pcDNA3.1 expression vector; also called FLAG-MRGPRX2; wild type MRGPRX2; source: HEK293T, transiently transfected (pcDNA3.1), on cells; not shown: FLAG, N-terminal, kept

Common to all, as to conditions: one partner purified
The target in test [1] is B5. Nature of the test: flow cytometry on cells; dose response of nanobody on ROSA mast cells (100,000 cells per well), 30 min at 4 °C; anti-human IgG Fc-AF488; MFI; for Kd the non-specific signal was the MFI with Nb 60. (Flow cytometry measures light scatter and fluorescence of single cells or particles in a stream.)
Test [2] concerns the target B6. The test can be described thus: flow cytometry on cells; monomeric nanobody or variant with V5 tag, 1-2 h at 4 °C, on HEK293T cells transfected with FLAG-MRGPRX2, FLAG-MC4R, FLAG-CXCR3 or empty vector; HBS + 0.1% BSA + 2 mM calcium; anti-V5-APC.
Test [3] deals with T1, FLAG-MC4R, on transfected HEK293T cells (Homo sapiens (Human)., UniProt P32245).
T1 construct: source: HEK293T, transiently transfected, on cells
The test is described as above.

The target in test [4] is T2, Nanobody Sim4784 (rank 7), human IgG1 Fc fusion.
T2 construct: (GGS)3 linker between the nanobody and the Fc; cloned into pFUSE-CHIg-hG1 with H435A in the Fc; source: Expi293F, transiently transfected, purified (protein A); not shown: Fc (human IgG1, H435A), C-terminal, kept
The test can be described thus: flow cytometry on cells; dose response of nanobody on ROSA mast cells (100,000 cells per well), 30 min at 4 °C; anti-human IgG Fc-AF488; MFI; for Kd the non-specific signal was the MFI with Nb 60.

Test [5] has as its target T3, Nanobody Sim8619 (rank 1), human IgG1 Fc fusion.
T3 construct: (GGS)3 linker between the nanobody and the Fc; cloned into pFUSE-CHIg-hG1 with H435A in the Fc; also called Nb Sim 8619; source: Expi293F, transiently transfected, purified (protein A); not shown: Fc (human IgG1, H435A), C-terminal, kept
The test is described as above.

Test [6] deals with T4, Nanobody Sim9877 (rank 5), human IgG1 Fc fusion.
T4 construct: (GGS)3 linker between the nanobody and the Fc; cloned into pFUSE-CHIg-hG1 with H435A in the Fc; also called Nb Sim9877; source: Expi293F, transiently transfected, purified (protein A); not shown: Fc (human IgG1, H435A), C-terminal, kept
The description is as above.

Test [7] concerns the target T2, Nanobody Sim4784 (rank 7), human IgG1 …. Nature of the test: flow cytometry on cells; nanobody-Fc at the indicated concentrations, 1 h at 4 °C, on HEK293T cells transfected with FLAG-MRGPRX2, MRGPRX2 E164A D184A or empty vector; HBS + 2% FBS + 0.05% BSA; anti-human Fc-AF647; non-specific signal from empty-vector cells.
Test [8] addresses T3, Nanobody Sim8619 (rank 1), human IgG1 …. Described as above.
For test [9], the target named is T4, Nanobody Sim9877 (rank 5), human IgG1 …. Described as above.

T1 sequence (P32245 whole entry): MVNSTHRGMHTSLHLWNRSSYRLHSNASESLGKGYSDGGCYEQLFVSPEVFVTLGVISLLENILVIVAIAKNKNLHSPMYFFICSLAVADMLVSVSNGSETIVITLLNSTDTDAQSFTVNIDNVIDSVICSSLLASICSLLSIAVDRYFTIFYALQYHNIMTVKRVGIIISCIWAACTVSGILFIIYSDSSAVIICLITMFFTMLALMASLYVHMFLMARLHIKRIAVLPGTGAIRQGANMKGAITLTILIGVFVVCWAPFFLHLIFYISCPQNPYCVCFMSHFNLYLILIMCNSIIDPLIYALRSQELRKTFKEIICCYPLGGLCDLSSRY

B1: Nanobody Sim8619 (rank 1) with an R102A mutation (VHH)
VHH: QVQLQESGGGLVQAGGSLRLSCAASGSIFYIRGMGWYRQAPGKERELVAGIDVGAITYYADSVKGRFTISRDNAKNTVYLQMNSLKPEDTAVYYCAVWAYTAAGYTTVYAYWGQGTQVTVSS
notes: as the nanobody of m5 (Sim8619); the ROSA cell assay is told only for Fc fusions, nanobody variants are told as monomers from E. coli; also called R102A mutant; Sim8619 R102A
B1 yielded an EC50 in [1] of 210 nM.

B2: Nanobody Sim8619 (rank 1), monomeric (monovalent format) (VHH)
VHH: QVQLQESGGGLVQAGGSLRLSCAASGSIFYIRGMGWYRQAPGKERELVAGIDVGAITYYADSVKGRFTISRDNAKNTVYLQMNSLKPEDTAVYYCAVWAYTRAGYTTVYAYWGQGTQVTVSS
notes: source: E. coli BL21-DE3 (pET-26b), purified (protein A, Ni-NTA); not shown: V5, C-terminal, kept
For the molecule B2, the binding result in test [2] is “binds”.

B3: Nanobody Sim4784 (rank 7), monomeric (monovalent format) (VHH)
VHH: QVQLQESGGGLVQAGGSLRLSCAASGTISPPTYMGWYRQAPGKERELVASIGAGSNTNYADSVKGRFTISRDNAKNTVYLQMNSLKPEDTAVYYCAAIFGRLWYHLYWGQGTQVTVSS
notes: as for B2
In the case of B3, the binding result in test [2] and in test [3] was “binds” throughout.

B4: Nanobody Sim9877 (rank 5), monomeric (monovalent format) (VHH)
VHH: QVQLQESGGGLVQAGGSLRLSCAASGYISSFPVMGWYRQAPGKERELVAAIGSGGITYYADSVKGRFTISRDNAKNTVYLQMNSLKPEDTAVYYCAVAGYNIGSYYYWGQGTQVTVSS
notes: as for B2
On to B4, for which the binding result in test [2] was “binds”.
As to B5, the dissociation constant Kd is 50 nM in test [4], 100 nM in test [5] and 20 nM in [6].
In the case of B6, the dissociation constant Kd in test [7] is 80 nM; in test [8], 200 nM; in test [9], 160 nM.
